Measurements from patent publication US7935343B2.

How the values were obtained:
human IL-13 (human) [1] = biological target: human IL-13 (human)
human IL-13 (human) [2] = biological target: human IL-13 (human); remark: listed apart in the source
[3] = biological target: native human IL-13 released from HDLM-2 cells (human)
[4] = biological target: human IL-13 variant (Q130R) with carboxyl terminus affinity tag (baculovirus expression) (human)
[5] = biological target: non-human primate IL-13 (rhesus and cynomolgus, identical) with carboxyl terminus affinity tag (cynomolgus and rhesus monkey)
non-human primate IL-13 (rhesus and cynomolgus, identical) with carboxyl terminus affinity tag (cynomolgus and rhesus monkey), sequence (chain, as listed by the source): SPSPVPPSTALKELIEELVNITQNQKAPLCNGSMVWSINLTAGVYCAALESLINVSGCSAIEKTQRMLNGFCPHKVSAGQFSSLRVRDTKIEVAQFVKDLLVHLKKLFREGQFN

human IL-13 variant (Q130R) with carboxyl terminus affinity tag (baculovirus expression) (human), sequence (chain, as listed by the source Q130R Q130R): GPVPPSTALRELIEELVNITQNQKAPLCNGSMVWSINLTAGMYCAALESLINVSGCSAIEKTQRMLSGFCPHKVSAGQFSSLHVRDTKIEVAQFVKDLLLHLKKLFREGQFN

Row | Substance | IC50, eotaxin release from NHLF (human IL-13 (human) [1]) [nM] | IC50, TF-1 proliferation (human IL-13 (human) [2]) [nM] | IC50, HDLM-2 cell proliferation [3] [nM] | IC50, TF-1 cell proliferation [4] [nM] | IC50, TF-1 cell proliferation [5] [nM]
1 | JES10-5A2 (rat IgG1, Biosource) (antibody) | 0.623 | 0.471 | 10.7 |  | 
2 | BAK502G9 IgG4 (antibody) |  |  |  | 1.9 | 2
3 | B-B13 (mouse IgG1, Euroclone) (antibody) | 0.219 | 1.02 | 16.7 |  | 
